# Experimental data as given in patent publication US6624144B1, “Matrix metalloproteinase inhibitors and down-regulators” (CTT Cancer Targeting Technologies Oy, priority 1998, dated 2003).
# Bridge positions count the residues as written; N and C are the ends. Ends that are not written are not given here. Peptide text beside a SMILES is read from it.
# T1: MMP-2 (Homo sapiens, UniProt P08253)
# T1 construct: endogenous in cells; host or cells: human gingival fibroblasts (serum-free culture medium)
# T1 sequence (P08253 110-660): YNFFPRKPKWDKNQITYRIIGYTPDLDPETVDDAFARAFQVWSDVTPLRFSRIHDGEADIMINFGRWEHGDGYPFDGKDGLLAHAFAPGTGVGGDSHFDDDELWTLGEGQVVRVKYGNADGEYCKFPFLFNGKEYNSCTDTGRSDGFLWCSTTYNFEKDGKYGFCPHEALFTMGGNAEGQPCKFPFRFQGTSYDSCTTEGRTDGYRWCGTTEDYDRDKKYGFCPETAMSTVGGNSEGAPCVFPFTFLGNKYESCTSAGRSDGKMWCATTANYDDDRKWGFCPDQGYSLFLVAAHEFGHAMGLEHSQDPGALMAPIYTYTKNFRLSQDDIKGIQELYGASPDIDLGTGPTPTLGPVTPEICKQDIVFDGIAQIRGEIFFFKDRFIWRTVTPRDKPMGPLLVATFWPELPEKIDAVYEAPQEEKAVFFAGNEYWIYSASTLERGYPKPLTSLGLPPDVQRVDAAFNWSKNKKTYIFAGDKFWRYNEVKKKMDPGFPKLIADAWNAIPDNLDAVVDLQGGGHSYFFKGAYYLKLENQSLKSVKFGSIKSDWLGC
# T2: proMMP-2 (Homo sapiens, UniProt P08253)
# T2 construct: endogenous in cells; host or cells: human gingival fibroblasts (serum-free culture medium)
# T2 sequence (P08253 30-660 limits assumed): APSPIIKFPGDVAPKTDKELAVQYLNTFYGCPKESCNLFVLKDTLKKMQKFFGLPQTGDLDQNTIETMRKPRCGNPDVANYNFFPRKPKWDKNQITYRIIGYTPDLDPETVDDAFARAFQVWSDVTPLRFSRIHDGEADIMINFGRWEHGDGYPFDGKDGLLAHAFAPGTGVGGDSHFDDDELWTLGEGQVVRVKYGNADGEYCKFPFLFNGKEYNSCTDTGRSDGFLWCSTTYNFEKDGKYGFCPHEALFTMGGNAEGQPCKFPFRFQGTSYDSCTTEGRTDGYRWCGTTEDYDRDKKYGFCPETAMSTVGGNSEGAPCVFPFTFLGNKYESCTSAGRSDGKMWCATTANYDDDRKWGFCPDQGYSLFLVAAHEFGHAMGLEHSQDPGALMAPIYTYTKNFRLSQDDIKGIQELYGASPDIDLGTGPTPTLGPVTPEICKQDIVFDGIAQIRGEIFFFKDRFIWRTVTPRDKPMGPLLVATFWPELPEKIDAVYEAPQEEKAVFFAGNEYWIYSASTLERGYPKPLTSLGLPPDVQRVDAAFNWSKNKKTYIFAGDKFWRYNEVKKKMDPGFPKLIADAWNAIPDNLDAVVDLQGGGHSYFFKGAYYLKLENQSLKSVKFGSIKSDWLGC
# T3: APMA-activated MMP-2 (Homo sapiens, UniProt P08253)
# T3 construct: endogenous in cells; host or cells: human gingival fibroblasts (serum-free culture medium)
# T3 sequence (P08253 110-660): T1 sequence (P08253 110-660)
# T4: proMMP-2 (human, UniProt P08253 30-660)
# T4 sequence (looked up): T2 sequence (P08253 30-660 limits assumed)
# T5: APMA-activated MMP-2 (human, UniProt P08253 30-660)
# T5 sequence (looked up): T2 sequence (P08253 30-660 limits assumed)
# B1: phage clone displaying CSLHWGFWWC (from the CX9 library) (peptide)
# peptide: CSLHWGFWWC
# notes: not shown: phage coat protein to which the peptide is fused
# B2: phage clone displaying CRRHWGFEFC (from the CX9 library) (peptide)
# peptide: CRRHWGFEFC
# notes: as for B1
# Tests used:
# [1] = Toxicity when injected into animals; details: in vivo
# [2] = biological target: T1, MMP-2; test: β-casein degradation by MMP-2 (SDS gel); type: biochemical; details: APMA-activated MMP-2, β-casein
# Procedure: (§1) After 1 h pretreatment with the peptides, APMA-activated MMP-2 (A, C) or proMMP-2 (B, D) was incubated with the casein for 2 h. 52 μM β-casein was used as substrate for MMPs. Shown is Coomassie Blue-staining of the 21 kD β-casein (lane 1) and its fragments (lanes 2-9) resolved by SDS-PAGE (A, B); CTTHWGFTLC(SEQ ID NO:3) was used at the concentrations of (2) 0 μg/ml, (3) 75, (4) 50, (5) 25, (6) 10, (7) 5, (8) 1, and (9) 0.5 μg/ml in the lanes 2-9, respectively. (C, D); the concentrations of CRRHWGFEFC(SEQ ID. NO:2) were 0, 250, 100, 50, 25, 10, 1, and 0.5 μg/ml, respectively.
# (§2) For the gelatin and casein degradation assays, purified MMP-2 and MMP-9 (50-100 ng) were first incubated for 60 min with various concentrations of the peptide inhibitors, after which a 21 kDa β-casein (52 μM) or [^125I]-gelatin substrate was added. After incubation for 2 h at 22 ° C., degradation of the casein was analyzed by SDS gel electrophoresis. The degradation of [^125I]-gelatin was determined by counting radioactivity in the supernatant after precipitation of undegraded gelatin with 20% trichloroacetic acid.
# (§3) We also used β-casein as a substrate for the gelatinases and analyzed the degradation products by SDS gel electrophoresis.
# [3] = biological target: T2, proMMP-2; test: β-casein degradation by proMMP-2 not preactivated with APMA; type: biochemical
# Procedure: as §1, §2, §3
# [4] = Solubility in aqueous buffers
# [5] = biological target: T6, proMMP-9 (Homo sapiens, UniProt P14780); test: [125I]-gelatin degradation by proMMP-9 (autoactivating); type: biochemical
# T6 construct: from tissue; host or cells: human neutrophils
# T6 sequence (P14780 20-707 limits assumed): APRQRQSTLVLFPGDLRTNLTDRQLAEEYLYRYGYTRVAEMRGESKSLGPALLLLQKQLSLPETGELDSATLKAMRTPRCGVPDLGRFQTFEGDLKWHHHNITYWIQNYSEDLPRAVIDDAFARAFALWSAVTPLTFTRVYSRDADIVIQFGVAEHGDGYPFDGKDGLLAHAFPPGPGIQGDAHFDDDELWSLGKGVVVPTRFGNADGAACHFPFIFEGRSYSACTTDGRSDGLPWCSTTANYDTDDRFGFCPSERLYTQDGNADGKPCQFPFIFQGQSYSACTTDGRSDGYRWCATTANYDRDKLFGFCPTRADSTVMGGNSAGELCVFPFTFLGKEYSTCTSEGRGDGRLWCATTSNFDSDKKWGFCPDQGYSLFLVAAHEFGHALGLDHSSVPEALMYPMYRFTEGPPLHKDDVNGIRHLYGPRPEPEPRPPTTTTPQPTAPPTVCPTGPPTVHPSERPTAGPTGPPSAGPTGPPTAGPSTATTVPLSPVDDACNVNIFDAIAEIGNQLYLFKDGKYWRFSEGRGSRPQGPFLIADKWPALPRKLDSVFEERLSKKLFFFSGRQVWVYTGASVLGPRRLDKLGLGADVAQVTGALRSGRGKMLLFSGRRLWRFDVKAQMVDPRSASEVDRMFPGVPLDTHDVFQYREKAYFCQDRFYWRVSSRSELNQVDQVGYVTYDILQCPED
# Procedure: (§4) ProMMP-9 was purified from human neutrophils and activated with aminophenyl mercuric acetate (APMA) essentially as described by Hibbs et al. (1985). For the selection of MMP-9 binding phage, APMA-activated MMP-9 was coated on microtiter wells overnight at 4° C. using a concentration of 1 μg/ml, after which the […] were saturated with 5 % bovine serum albumin. In the first panning, the library was incubated overnight at 4° C. in 50 mM Tris-HCl/0.1 M NaCl buffer (pH 7.5) (TBS) containing 1% bovine serum albumin, and after extensive washing the bound phage were eluted with low pH buffer. In the subsequent pannings, the amplified phage were allowed to bind for 1 h at 22° C. […] The bound phage were quantitated by adding 50 ng per well of anti-M13 antibody (Pharmacia, Uppsala, Sweden) labeled with an Europium-chelate (Wallac Ltd., Turku, Finland). After incubation for 45 min followed by washing, the fluorescence was measured with 1230 Arcus fluorometer (Wallac Ltd., Turku, Finland).
# as §2, with “The degradation of [^125I]-gelatin was determined by counting radioactivity in the supernatant after precipitation of undegraded gelatin with 20% trichloroacetic acid.” left out
# [6] = biological target: T7, APMA-activated MMP-9 (Homo sapiens, UniProt P14780); test: [125I]-gelatin degradation by APMA-activated MMP-9; type: biochemical
# T7 construct: from tissue; host or cells: human neutrophils
# T7 sequence (P14780 107-707 limits assumed): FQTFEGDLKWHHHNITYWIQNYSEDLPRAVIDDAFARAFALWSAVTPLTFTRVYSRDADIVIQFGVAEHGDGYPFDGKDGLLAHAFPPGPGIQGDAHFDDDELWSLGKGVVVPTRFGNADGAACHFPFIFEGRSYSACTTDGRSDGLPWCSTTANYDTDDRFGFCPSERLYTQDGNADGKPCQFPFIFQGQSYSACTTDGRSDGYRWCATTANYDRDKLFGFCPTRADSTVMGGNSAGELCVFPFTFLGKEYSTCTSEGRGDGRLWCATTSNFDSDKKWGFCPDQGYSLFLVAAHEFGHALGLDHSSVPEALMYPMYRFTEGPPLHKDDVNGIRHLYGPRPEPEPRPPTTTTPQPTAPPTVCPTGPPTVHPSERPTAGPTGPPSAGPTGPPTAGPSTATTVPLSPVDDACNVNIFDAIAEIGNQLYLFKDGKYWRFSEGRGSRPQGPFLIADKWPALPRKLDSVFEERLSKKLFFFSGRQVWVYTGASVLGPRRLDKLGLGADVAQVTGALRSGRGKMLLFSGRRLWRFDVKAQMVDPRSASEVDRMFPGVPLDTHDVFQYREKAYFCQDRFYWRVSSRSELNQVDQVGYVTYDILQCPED
# Procedure: as §4
# as §2, with “The degradation of [^125I]-gelatin was determined by counting radioactivity in the supernatant after precipitation of undegraded gelatin with 20% trichloroacetic acid.” left out
# [7] = test system: HT1080 fibrosarcoma cells; test: Transwell random migration of HT1080 cells; type: cell-based; details: 500 μg/ml, control peptides
# Procedure: The endothelial cell line HUVEC (human umbilical vein endothelial cells, obtained from the ATCC, Rockville, Md.) was grown in RPMI 1640 medium containing penicillin (100 units/ml), streptomycin (100 μg/ml), 10 mM HEPES, 30 μg/ml endothelial cell growth supplement (Biomedical Technologies, Stoughton, Mass.), and 20% fetal calf serum. The HT1080 fibrosarcoma cells (ATCC, Rockville, Md.), C8161 melanoma cells and Eahy926 cells (derivative of HUVEC) were cultured in Dulbecco's modified Eagle's medium containing the antibiotics, 10% fetal calf serum, and hypoxanthine/aminopterin/thymidine additive with the Eahy926 cells. Cultures of cells were harvested with trypsin-EDTA (endothelial cells) or EDTA alone (other cells), washed, and resuspended in the full serum-containing media as indicated above.
# Random cell migration was studied using […] pore size and 6.5 mm diameter Transwell inserts (Costar, Cambridge, Mass.) that were equilibrated in the serum-containing medium for 2 h before use. Tumor cell invasion was studied using 6.4 mm diameter Boyden chambers precoated with Matrigel (Becton Dickinson, Bedford, MA) and equilibrated in the serum-containing medium. […] Cells were removed from the upper surface of the membrane with a cotton swab, and the cells migrated on the undersite of the membrane were counted microscopically, or alternatively quantitated by scanning.
# [8] = biological target: T2, proMMP-2; test: [125I]-gelatin degradation by proMMP-2; type: biochemical; details: 10 μg/ml
# Procedure: as §2
# (§5) proMMP-2 was purified from serum-free culture medium of human gingival fibroblasts.
# [9] = biological target: T3, APMA-activated MMP-2; test: [125I]-gelatin degradation by APMA-activated MMP-2; type: biochemical; details: 10 μg/ml
# Procedure: as §2, §5
# [10] = biological target: T4, proMMP-2; test: cell-based or functional assay
# [11] = biological target: T5, APMA-activated MMP-2; test: cell-based or functional assay
# [12] = biological target: T8, proMMP-9 (human, UniProt P14780 20-707); test: phage binding (attachment) assay
# T8 construct: also called 92 kDa proMMP-9
# T8 sequence (P14780 20-707): as the sequence (P14780 20-707 limits assumed) above
# [13] = biological target: APMA-activated MMP-9 (human, UniProt P14780 94-707); test: cell-based or functional assay
molecule,measurement,setting,value
CC(C)C[C@@H]1NC(=O)[C@H]([C@@H](C)O)NC(=O)[C@H](Cc2ccccc2)NC(=O)CNC(=O)[C@H](Cc2c[nH]c3ccccc23)NC(=O)[C@H](Cc2c[nH]cn2)NC(=O)[C@H]([C@@H](C)O)NC(=O)[C@H]([C@@H](C)O)NC(=O)[C@@H](N)CSSC[C@@H](C(=O)O)NC1=O [CTTHWGFTLC] (H-CTTHWGFTLC-OH; disulfide 1-10; N-terminus and C-terminus assumed),toxicity when injected into animals,[1],no toxicity
same,IC50,[2],~4.29 µM
same,IC50,[3],4.29 µM
RAVRALWRC [RAVRALWRC],solubility,[4],highly soluble
N=C(N)NCCC[C@@H]1NC(=O)[C@H](CCCNC(=N)N)NC(=O)[C@@H](N)CSSC[C@@H](C(=O)O)NC(=O)[C@H](Cc2ccccc2)NC(=O)[C@H](CCC(=O)O)NC(=O)[C@H](Cc2ccccc2)NC(=O)CNC(=O)[C@H](Cc2c[nH]c3ccccc23)NC(=O)[C@H](Cc2c[nH]cn2)NC1=O [CRRHWGFEFC] (H-CRRHWGFEFC-OH; disulfide 1-10; N-terminus and C-terminus assumed),IC50,[2],~18.7 µM
same,inhibition of proMMP-9 gelatinolytic activity,[5]; peptide 10 μg/ml,more than 50%
same,IC50,[3],18.7 µM
same,IC50,"[6]; APMA-activated MMP-9, read-out: half-maximal inhibitory value (IC50), [125I]-gelatin degradation (converted)",~7.47 µM
EVGTGSCNLECVSTNPLSGTEQ (Targeted to Homo sapiens),solubility,[4],highly soluble
same,effect on cell migration,[7],None of these control peptides affected cell migration
"linear CRRHWGFEFC: linearized version of CRRHWGFEFC prepared by reducing and alkylating the cysteine residues (also: cysteines reduced and alkylated, alkylating agent not given here)",gelatinolysis by proMMP-2,[8],virtually inactive
same,gelatinolysis by APMA-activated MMP-2,[9],virtually inactive
same,inhibitory activity against proMMP-9 gelatinolysis,[5]; 10 μg/ml (FIG. 2),loss of inhibitory activity
same,inhibitory activity against APMA-activated MMP-9 gelatinolysis,[6]; 10 μg/ml (FIG. 2),loss of inhibitory activity
CQWNNDNPLFKEAEEEVMNPKFAES,solubility,[4],highly soluble
CTTHWGFTLC (disulfide 1-10 (inferred)) [cyclic CTTHWGFTLC synthetic peptide],"IC50, β-casein degradation (SDS-PAGE)",[10],5 µg/mL
same,"IC50, β-casein degradation (SDS-PAGE)",[11],~5 µg/mL
B1,binding result,[12],no binding
B2,binding result,[12],no binding
CRRHWGFEFC (disulfide 1-10 (inferred)) [cyclic CRRHWGFEFC synthetic peptide],"IC50, β-casein degradation (SDS-PAGE)",[10],25 µg/mL
same,"IC50, [125I]-gelatin degradation assay",[13],~10 µg/mL
same,"IC50, β-casein degradation (SDS-PAGE)",[11],~25 µg/mL
